Measured values reported in patent US20230287598A1 (TAURUS BIOSCIENCES, published 2023).
Numbering of substitutions follows the chain as printed. In names and notes the source's numbering stands. Like-named read-outs stand apart in the source and are kept apart here.

B1: VH4-34+CDR3-IL8 / VL1-51 S2A, T5N, P8S, A12G, A13S, P14L, D51G, N52D, N53T IgG (antibody)
VH: QVQLQQWGAGLLKPSETLSLTCAVYGGSFSGYYWSWIRQPPGKGLEWIGEINHSGSTNYNPSLKSRVTISVDTSKNQFSLKLSSVTAADTAVYYCTSVHQETKKYQSPRSAKELRCQCIKTYSKPFHPKFIKELRVIESGPHCANTEIIVKLSDGRELCLDPKENWVQRVVEKFLKRAENSGSGSYTYNYEWHVDVWGQGLLVTVSSAS
light: QAVLNQPSSVSGSLGQKVTISCSGSSSNIGNNYVSWYQQLPGTAPKLLIYGDTKRPSGIPDRFSGSKSGTSATLGITGLQTGDEADYYCASAEDSSSNAVFGSGTTLTVLGQPKAAPSVTLFPPSSEELQANKATLVCLISDFYPGAVTVAWKADSSPVKAGVETTTPSKQSNNKYAASSYLSLTPEQWKSHRSYSCQVTHEGSTVEKTVAPTECS
notes: nt HC 430, LC 444
B2: VH4-34+CDR3-IL8_CDR1 G31D,Y32K / VL1-51 S2A, T5N, P8S, A12G, A13S, P14L IgG (antibody)
VH: B1 VH with G31D, Y32K
light: B1 light with G51D, D52N, T53N
B3: VH4-34+CDR3-IL8_CDR1 G31D,Y32K_CDR2 E50S / VL1-51 S2A, T5N, P8S, A12G, A13S, P14L, D51G, N52D, N53T IgG (antibody)
VH: B1 VH with G31D, Y32K, E50S
light: B1 light
B4: VH4-34+CDR3-IL8_CDR1-G31DY32K_CDR2-E50S_Q5RQ6E / VL1-51 S2A, T5N, P8S, A12G, A13S, P14L, D51G, N52D, N53T IgG (antibody)
VH: QVQLREWGAGLLKPSETLSLTCAVYGGSFSDKYWSWIRQPPGKGLEWIGSINHSGSTNYNPSLKSRVTISVDTSKNQFSLKLSSVTAADTAVYYCTSVHQETKKYQSPRSAKELRCQCIKTYSKPFHPKFIKELRVIESGPHCANTEIIVKLSDGRELCLDPKENWVQRVVEKFLKRAENSGSGSYTYNYEWHVDVWGQGLLVTVSS
light: B1 light
B5: VH4-34+CDR3-IL8_CDR1 G31D,Y32K / VL1-51 S2A, T5N, P8S, A12G, A13S, P14L, K46R, L47T, D51G, N52D, N53T IgG (antibody)
VH: B1 VH with G31D, Y32K
light: B1 light with K46R, L47T
notes: nt HC 434, LC 486
B6: VH4-34+CDR3-IL8_CDR1-Cow_Q5RQ6E / VL1-51 S2A, T5N, P8S, A12G, A13S, P14L, K46R, L47T, D51G, N52D, N53T IgG (antibody)
VH: B4 VH with A23T, V24A, Y25S, G27F, F29L, Y33A, W34V, S35G, S50E
light: B1 light with K46R, L47T
notes: also called BID 43; VH4-34 MutF IL-8 5R6E CD1cow
B7: VH4-34+CDR3-IL8_CDR1-Cow_CDR2-Cow_Q5RQ6E / VL1-51 S2A, T5N, P8S, A12G, A13S, P14L, D51G, N52D, N53T IgG (antibody)
VH: QVQLREWGAGLLKPSETLSLTCTASGFSLSDKAVGWIRQPPGKGLEWLGSIDTGGNTGYNPSLKSRVTISVDTSKNQFSLKLSSVTAADTAVYYCTSVHQETKKYQSPRSAKELRCQCIKTYSKPFHPKFIKELRVIESGPHCANTEIIVKLSDGRELCLDPKENWVQRVVEKFLKRAENSGSGSYTYNYEWHVDVWGQGLLVTVSS
light: B1 light
B8: VH4-34+CDR3-IL8_Q5RQ6E / VL1-51 S2A, T5N, P8S, A12G, A13S, P14L, K46R, L47T, D51G, N52D, N53T, K54S, P56A IgG (antibody)
VH: B4 VH with D31G, K32Y, S50E
light: B1 light with K46R, L47T, K54S, P56A
B9: VH4-34+CDR3-IL8_CDR1 Cow / VL1-51 S2A, T5N, P8S, A12G, A13S, P14L, D51G, N52D, N53T IgG (antibody)
VH: B1 VH with A23T, V24A, Y25S, G27F, F29L, G31D, Y32K, Y33A, W34V, S35G
light: B1 light
B10: VH4-34+CDR3-IL8_CDR1 G31D,Y32K_CDR2 E50S / VL1-51 S2A, T5N, P8S, A12G, A13S, P14L IgG (antibody)
VH: B1 VH with G31D, Y32K, E50S
light: B1 light with G51D, D52N, T53N
B11: VH4-34+CDR3-IL8_CDR1-Cow_Q5RQ6E / VL1-51 I29V, N32G, K46R, L47T, D51G, N52D, N53T, K54S, P56A IgG (antibody)
VH: B7 VH with L48I, S50E, D52N, T53H, G54S, N56S, G58N
light: QSVLTQPPSVSAAPGQKVTISCSGSSSNVGNGYVSWYQQLPGTAPRTLIYGDTSRASGIPDRFSGSKSGTSATLGITGLQTGDEADYYCASAEDSSSNAVFGSGTTLTVLGQPKAAPSVTLFPPSSEELQANKATLVCLISDFYPGAVTVAWKADSSPVKAGVETTTPSKQSNNKYAASSYLSLTPEQWKSHRSYSCQVTHEGSTVEKTVAPTECS
B12: VH4-34+CDR3-IL8_CDR1-Cow_Q5RQ6E / VL1-51 S2A, T5N, P8S, A12G, A13S, P14L, K46R, L47T, D51G, N52D, N53T, K54S, P56A IgG (antibody)
VH: B7 VH with L48I, S50E, D52N, T53H, G54S, N56S, G58N
light: B1 light with K46R, L47T, K54S, P56A
B13: VH4-34+CDR3-IL8_CDR1-G31DY32K_CDR2-E50S_Q5RQ6E / VL1-51 S2A, T5N, P8S, A12G, A13S, P14L, K46R, L47T, D51G, N52D, N53T, K54S, P56A IgG (antibody)
VH: B4 VH
light: B1 light with K46R, L47T, K54S, P56A
B14: VH4-34+CDR3-IL8_CDR1-Cow / VL1-51 S2A, T5N, P8S, A12G, A13S, P14L IgG (antibody)
VH: B1 VH with A23T, V24A, Y25S, G27F, F29L, G31D, Y32K, Y33A, W34V, S35G
light: B1 light with G51D, D52N, T53N
notes: also called BID 34
B15: VH4-34+CDR3-IL8_CDR1-G31DY32K_Q5RQ6E / VL1-51 S2A, T5N, P8S, A12G, A13S, P14L, K46R, L47T, D51G, N52D, N53T, K54S, P56A IgG (antibody)
VH: B4 VH with S50E
light: B1 light with K46R, L47T, K54S, P56A
B16: VH4-34+CDR3-IL8_CDR1 Cow_CDR2 E50S / VL1-51 S2A, T5N, P8S, A12G, A13S, P14L, K46R, L47T, D51G, N52D, N53T IgG (antibody)
VH: QVQLQQWGAGLLKPSETLSLTCTASGFSLSDKAVGWIRQPPGKGLEWIGSINHSGSTNYNPSLKSRVTISVDTSKNQFSLKLSSVTAADTAVYYCTSVHQETKKYQSPRSAKELRCQCIKTYSKPFHPKFIKELRVIESGPHCANTEIIVKLSDGRELCLDPKENWVQRVVEKFLKRAENSGSGSYTYNYEWHVDVWGQGLLVTVSSAS
light: B1 light with K46R, L47T

Assays:
CXCR1 [1] = target: T1, CXCR1 (UniProt P25024 1-350, limits assumed); assay: flow cytometry, supernatant at 5 nM IgG
T1 construct: whole, on cells; DiscoveRx PathHunter cell line; any reporter tag on the receptor is not described; also called CXCR1 receptor; CXCR1-U2OS
T1 sequence (looked up): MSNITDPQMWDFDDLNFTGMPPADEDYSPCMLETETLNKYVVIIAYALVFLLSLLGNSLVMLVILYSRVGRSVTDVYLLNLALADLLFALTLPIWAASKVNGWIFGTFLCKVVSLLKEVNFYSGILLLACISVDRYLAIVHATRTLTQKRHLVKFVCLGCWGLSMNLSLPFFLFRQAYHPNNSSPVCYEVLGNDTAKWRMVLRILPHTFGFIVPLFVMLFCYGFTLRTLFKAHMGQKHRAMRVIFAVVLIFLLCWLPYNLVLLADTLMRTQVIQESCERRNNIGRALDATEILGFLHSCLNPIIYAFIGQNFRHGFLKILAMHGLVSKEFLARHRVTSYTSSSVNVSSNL

CXCR1 [2] = target: T1, CXCR1; assay: flow cytometry, supernatant at 5 nM IgG; remark: listed apart in the source

Binder	Specific Binding (CXCR1-Cell median AFU / Parental Cell median AFU) (CXCR1 [1])	Specific Binding (CXCR1-Cell median AFU / Parental Cell median AFU) (CXCR1 [2])
B1	3	
B2	4	
B3	17	
B4		1
B5	15	
B6		10
B7		4
B8		3
B9	4	
B10	5	
B11		2
B12		3
B13		3
B14	4	
B15		2
B16	6	
